The results in this text go back to patent US20160046672A1, “STAPLING eIF4E INTERACTING PEPTIDES” (AGENCY FOR SCIENCE, TECHNOLOGY AND RESEARCH, priority 2013, published 2016).

One series can be described thus: circular dichroism. To be noted: 5 mM sodium phosphate; pH 7.0; ns °C; 0.5 or 2 mg/mL.
In another series the target is T1, eIF4E (Homo sapiens, UniProt P06730).
T1 construct: made in house
The experiment in a line: eIF4E affinity (SPR/FP, method not named). It is filed as binding. On the procedure:
Apparent Kd values were determined for a variety of molecules via competitive anisotropy anisotropy experiments. Titrations were carried out with the concentrations eIF4E held constant at 200 nM, respectively and the labeled peptide at 50 nM. The competing molecules were then titrated against complex of the FAM labeled peptide and protein. Apparent Kd values were determined by fitting the experimental data to the equations shown below: […]
(§1) Six buffer blanks were first injected to equilibrate the instrument fully and then a solvent correction curve was performed followed by a further two blank injections. […] Using a flow rate of 50 μl/min, compounds were injected for 60 s and dissociation was monitored for 180 s. The data collection rate was 10 Hz. Kds were determined using the BiaEvaluation software (Biacore) and calculated kinetically from the dissociation and association phase data for each of the peptides. The kinetic data were fitted to 1:1 binding models. Each individual peptide Kd was determined from three separate titrations. Within each titration at least two concentration points were duplicated to ensure stability and robustness of the chip surface.

A short description of series [1]: Circular dichroism, percent α-helicity in solution. It counts as physicochemical. The settings on record: CD, 5 mM sodium phosphate buffer pH 7.0. On the procedure:
CD was measured on a JASCO J-810 spectropolarimeter, and spectra were either recorded with a quartz cuvette (Helmer) with a pathlength of 0.01 cm or 0.1 cm in 5 mM sodium phosphate buffer (pH 7.0). FUV CD spectra were recorded from 260 nm to 200 nm at a peptide concentration of either 2 mg/ml or 0.5 mg/ml, respectively. The CD signal was converted into mean residue ellipticity in units of degree·cm^2·dmol^−1·residue^−1. CD spectra were recorded at a data pitch of 0.2 nm at 50 nm min^−1, a response time of 2 s, and a bandwidth of […]. Once converted to mean residue ellipticity, percent α-helicity can be calculated with equation (1) and (2): […]

Series [2] deals with T2, human eukaryotic translation initiation factor 4E (eIF4E), full-length (human, UniProt P06730 2-217).
T2 construct: mature; For SPR it was amine-coupled to a CM5 chip with m7GTP present in a 2:1 ratio. 'mature' is used here for full length; also called full length eIF4E
Briefly: Kd ratio from Table 2 (SPR/FP; which assay is not said).

Series [3] deals with T2, human eukaryotic translation initiation …. Briefly: SPR, Biacore T100, eIF4E immobilised on CM5, peptide as analyte, kinetic 1:1 fit. On the procedure: (§2) For stock peptide solutions, the compounds were dissolved in 100% DMSO to a concentration of 10 mM; further dilutions of the peptide stock solutions into DMSO and/or running buffer were performed immediately prior to analysis. Running buffer consisted of 10 mM Hepes pH 7.6, 0.15M NaCl, 1 mM DTT and 0.1% Tween20. Stock/DMSO diluted peptide solutions were diluted into 1.03× running buffer to make a peptide solution with 3% DMSO final concentration. […] Surface Plasmon resonance experiments were performed on a Biacore T100 machine.
eIF4E was immobilized on a CM5 sensor chip. The CM5 chip was conditioned with a 6 s injection of 100 mM HCL, followed by a 6 s injection of 0.1% SDS and completed with a 6 s injection of 50 mM NaOH at a flow rate of 100 μl/min. […] Purified eIF4E was diluted with 10 mM sodium acetate buffer (pH 5.0) to a final concentration of 0.5 μM with m⁷ GTP present in a 2:1 ratio in order to stabilize eIF4E. The amount of eIF4E immobilized on the activated surface was controlled by altering the contact time of the protein solution and was approximately 1000 RU. After the immobilization of the protein, a 7-min injection (at 10 μl min⁻¹) of 1 M ethanolamine (pH 8.5) was used to quench excess active succinimide ester groups.
as §1, with “titrations.” for “titrations. Within each titration at least two concentration points were duplicated to ensure stability and robustness of the chip surface.”

Series [4] shares this target. The experiment in a line: competitive fluorescence anisotropy (FP), displacement of FAM tracer from eIF4E, apparent Kd. The method, then: Apparent Kd values were determined for a variety of molecules via competitive anisotropy anisotropy experiments. Titrations were carried out with the concentrations eIF4E held constant at 200 nM, respectively and the labeled peptide at 50 nM. […] Apparent Kd values were determined by fitting the experimental data to the equations shown below: […]

For series [5] the target is unchanged. Briefly: SPR, Biacore T100, eIF4E immobilised on CM5, peptide as analyte, kinetic 1:1 fit; SPR (first value of the SPR/FP cell); weak, about 9 uM. The method, then:
as §2
(§3) eIF4E was immobilized on a CM5 sensor chip. The CM5 chip was conditioned with a 6 s injection of 100 mM HCL, followed by a 6 s injection of 0.1% SDS and completed with a 6 s injection of 50 mM NaOH at a flow rate of 100 μl/min. […]
(§4) Six buffer blanks were first injected to equilibrate the instrument fully and then a solvent correction curve was performed followed by a further two blank injections. […] Using a flow rate of 50 μl/min, compounds were injected for 60 s and dissociation was monitored for 180 s. […] Kds were determined using the BiaEvaluation software (Biacore) and calculated kinetically from the dissociation and association phase data for each of the peptides. […] Each individual peptide Kd was determined from three separate titrations.

Series [6] has the same target. The experiment in a line: Kd ratio from Table 2 (SPR/FP; which assay is not said; the reference is the linear template eIF4G^D5S).
For series [7] the target is unchanged. Briefly: SPR, Biacore T100, eIF4E immobilised on CM5, peptide as analyte, kinetic 1:1 fit; SPR (first value of the SPR/FP cell); weak, about 12 uM. The method, then: as §2, §3, §4

Positions of bridges follow the written chain, without caps; N, C: chain ends. Non-standard residues stand in square brackets, D forms with d. R5 = C=CCCC[C@@](C)(N)C(=O)O; S5 = C=CCCC[C@](C)(N)C(=O)O; Abu = CC[C@H](N)C(=O)O; Aib = CC(C)(N)C(=O)O

T1 sequence (P06730 whole entry): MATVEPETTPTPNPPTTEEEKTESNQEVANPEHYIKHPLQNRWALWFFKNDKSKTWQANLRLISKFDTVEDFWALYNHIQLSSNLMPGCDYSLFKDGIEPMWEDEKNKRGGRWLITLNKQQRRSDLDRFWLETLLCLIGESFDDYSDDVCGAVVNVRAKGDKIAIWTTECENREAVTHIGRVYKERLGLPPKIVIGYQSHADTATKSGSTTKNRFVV
T2 sequence (P06730 2-217): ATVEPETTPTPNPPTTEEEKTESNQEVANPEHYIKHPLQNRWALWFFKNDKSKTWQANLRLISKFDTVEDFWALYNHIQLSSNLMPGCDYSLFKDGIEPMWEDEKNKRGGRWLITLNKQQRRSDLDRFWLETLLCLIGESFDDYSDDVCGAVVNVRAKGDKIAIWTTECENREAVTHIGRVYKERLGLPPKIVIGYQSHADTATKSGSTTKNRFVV

Turning to `CC(=O)N[C@@H](CCCCN)C(=O)N[C@@H](CCCCN)C(=O)N[C@@H](CCCNC(=N)N)C(=O)N[C@@H](Cc1ccc(O)cc1)C(=O)N[C@@H](CO)C(=O)N[C@@H](CCCNC(=N)N)C(=O)N[C@@]1(C)CCCC=CCCC[C@@](C)(C(=O)N[C@@H](Cc2ccccc2)C(N)=O)NC(=O)[C@H](CC(C)C)NC(=O)[C@H](CC(C)C)NC(=O)[C@H](C)NC1=O` (relative stereo) [sTIP-01^F8A, KKRYSR*ALL*F], the helicity in the series “circular dichroism” came out at 80%. Moreover, on eIF4E, the “affinity / binding to eIF4E (in words)” value is given as “improved Kd values as compared to sTIP-01”.

For the molecule `CC[C@H](NC(=O)[C@]1(C)CCCC=CCCC[C@](C)(NC(=O)[C@H](CCCNC(=N)N)NC(=O)[C@H](CO)NC(=O)[C@H](Cc2ccc(O)cc2)NC(=O)[C@H](CCCNC(=N)N)NC(=O)[C@H](CCCCN)NC(=O)[C@H](CCCCN)NC(C)=O)C(=O)N[C@@H](Cc2ccccc2)C(=O)N[C@@H](CC(C)C)C(=O)N[C@@H](CC(C)C)C(=O)N1)C(N)=O` (relative stereo) [sTIP-01^F12&, KKRYSR*FLL*&], in series [1], the “Helicity (%)” value is 44%. In addition, the helicity in “circular dichroism” was found to be 44%. The “affinity / binding to eIF4E (in words)” value at eIF4E is listed as “improved Kd values as compared to sTIP-01”.

The molecule `CC(=O)N[C@@H](CCCCN)C(=O)N[C@@H](CCCCN)C(=O)N[C@@H](CCCNC(=N)N)C(=O)N[C@@H](Cc1ccc(O)cc1)C(=O)N[C@@H](CO)C(=O)N[C@@H](CCCNC(=N)N)C(=O)N[C@@H](CCC(=O)O)C(=O)N[C@@]1(C)CCCC=CCCC[C@@](C)(C(N)=O)NC(=O)CNC(=O)[C@H](CC(C)C)NC(=O)[C@H](CC(C)C)NC1=O` [sTIP-02, KKRYSRE*LLG*] returned a helicity in “circular dichroism” of 18%. Further, at eIF4E, the “Kd (in words)” value is given as “nanomolar range” and the “affinity / binding to eIF4E (in words)” value is “no improvement in binding over eIF4G^D5S”.

B1: TIP-01 (peptide)
peptide: Ac-KKRYSR[Aib]FLL[Aib]F-NH2
SMILES: CC(=O)N[C@@H](CCCCN)C(=O)N[C@@H](CCCCN)C(=O)N[C@@H](CCCNC(=N)N)C(=O)N[C@@H](Cc1ccc(O)cc1)C(=O)N[C@@H](CO)C(=O)N[C@@H](CCCNC(=N)N)C(=O)NC(C)(C)C(=O)N[C@@H](Cc1ccccc1)C(=O)N[C@@H](CC(C)C)C(=O)N[C@@H](CC(C)C)C(=O)NC(C)(C)C(=O)N[C@@H](Cc1ccccc1)C(N)=O
notes: Printed KKRYSRXFLLXF, X = AIB; also called diAIB derivative of sTIP-01
For the molecule B1, the “fold decrease in Kd over eIF4G^D5S” value in series [2] was roughly 2 fold. Moreover, the Kd is 59.7 nM in series [3] and 52.4 nM in [4].

B2: TIP-01^F8A (peptide)
peptide: Ac-KKRYSR[Aib]ALL[Aib]F-NH2
SMILES: CC(=O)N[C@@H](CCCCN)C(=O)N[C@@H](CCCCN)C(=O)N[C@@H](CCCNC(=N)N)C(=O)N[C@@H](Cc1ccc(O)cc1)C(=O)N[C@@H](CO)C(=O)N[C@@H](CCCNC(=N)N)C(=O)NC(C)(C)C(=O)N[C@@H](C)C(=O)N[C@@H](CC(C)C)C(=O)N[C@@H](CC(C)C)C(=O)NC(C)(C)C(=O)N[C@@H](Cc1ccccc1)C(N)=O
notes: Printed KKRYSRXALLXF, X = AIB
With B2, the values for the Kd in series [3] and in series [4] were 117 nM and 156 nM, respectively.

B3: TIP-02 (peptide)
peptide: Ac-KKRYSRE[Aib]LLG[Aib]-NH2
SMILES: CC(=O)N[C@@H](CCCCN)C(=O)N[C@@H](CCCCN)C(=O)N[C@@H](CCCNC(=N)N)C(=O)N[C@@H](Cc1ccc(O)cc1)C(=O)N[C@@H](CO)C(=O)N[C@@H](CCCNC(=N)N)C(=O)N[C@@H](CCC(=O)O)C(=O)NC(C)(C)C(=O)N[C@@H](CC(C)C)C(=O)N[C@@H](CC(C)C)C(=O)NCC(=O)NC(C)(C)C(N)=O
notes: Printed KKRYSREXLLGX, X = AIB; also called AIB derivative of sTIP-02
In [5], B3 displayed a Kd of 9190 nM.

B4: sTIP-03 (peptide)
peptide: Ac-KKRYSRE[R5]LL[S5]F-NH2
modifications: staple 8-11
notes: Printed KKRYSRE*LL*F, * = staple position
Take B4: the “fold improvement in Kd” value in series [6] turned out to be 17 fold.

B5: TIP-04 (peptide)
peptide: Ac-KKRYSR[Aib]QLL[Aib]L-NH2
notes: Printed KKRYSRXQLLXL, X = AIB; also called AIB derivative of sTIP-04
For the molecule B5, the values for the Kd in series [3] and in [4] were 22 nM and 60 nM, respectively.

B6: TIP-01^F12& (peptide)
peptide: Ac-KKRYSR[Aib]FLL[Aib][Abu]-NH2
SMILES: CC[C@H](NC(=O)C(C)(C)NC(=O)[C@H](CC(C)C)NC(=O)[C@H](CC(C)C)NC(=O)[C@H](Cc1ccccc1)NC(=O)C(C)(C)NC(=O)[C@H](CCCNC(=N)N)NC(=O)[C@H](CO)NC(=O)[C@H](Cc1ccc(O)cc1)NC(=O)[C@H](CCCNC(=N)N)NC(=O)[C@H](CCCCN)NC(=O)[C@H](CCCCN)NC(C)=O)C(N)=O
notes: Printed KKRYSRXFLLX&
For the molecule B6, the Kd in series [3] came out at 111 nM; in [4], 133 nM.

B7: sTIP-01 (peptide)
peptide: Ac-KKRYSR[S5]FLL[S5]F-NH2
modifications: staple 7-11
SMILES: CC(=O)N[C@@H](CCCCN)C(=O)N[C@@H](CCCCN)C(=O)N[C@@H](CCCNC(=N)N)C(=O)N[C@@H](Cc1ccc(O)cc1)C(=O)N[C@@H](CO)C(=O)N[C@@H](CCCNC(=N)N)C(=O)N[C@@]1(C)CCCC=CCCC[C@@](C)(C(=O)N[C@@H](Cc2ccccc2)C(N)=O)NC(=O)[C@H](CC(C)C)NC(=O)[C@H](CC(C)C)NC(=O)[C@H](Cc2ccccc2)NC1=O
notes: Printed KKRYSR*FLL*F, * = staple position
For the molecule B7, the “fold increase in Kd over eIF4G^D5S” value in series [2] was roughly 4.5 fold. For the same molecule, in [4], the Kd is 558 nM.

B8: eIF4G^D5S (peptide)
peptide: Ac-KKRYSREFLLGF-NH2
notes: also called eIF4G1^D5S; linear template peptide
As to B8, the figures for the Kd in series [3] and in [4] were 99.9 nM and 195 nM, respectively.

B9: TIP-01^Tr (peptide)
peptide: Ac-KKRYSR[Aib]FLL[Aib]-NH2
SMILES: CC(=O)N[C@@H](CCCCN)C(=O)N[C@@H](CCCCN)C(=O)N[C@@H](CCCNC(=N)N)C(=O)N[C@@H](Cc1ccc(O)cc1)C(=O)N[C@@H](CO)C(=O)N[C@@H](CCCNC(=N)N)C(=O)NC(C)(C)C(=O)N[C@@H](Cc1ccccc1)C(=O)N[C@@H](CC(C)C)C(=O)N[C@@H](CC(C)C)C(=O)NC(C)(C)C(N)=O
notes: Printed KKRYSRXFLLX; TIP-01 with the C-terminal F12 removed
B9 registered a Kd in [7] of 12100 nM.
